The test system of series [1] is ovarian serous carcinoma tumor model OMP-OV19. In words: Tumor recurrence after chemotherapy termination, OMP-OV19. It counts as in vivo, NOD.SCID mice. The following applies: paclitaxel 15 mg/kg with or without antibody once a week for 4 weeks, chemotherapy maintenance 3-4 weeks, monitored up to 2 months after discontinuation. On the procedure: FIGS. 7A and 7B are graphs showing delay in tumor recurrence by 305B83+21R30 and B20 following chemotherapy termination. Ovarian OMP-OV19 and pancreatic OMP-PN42-tumor bearing animals were randomized and treatment began when mean tumor volumes reached approximately 100-150 mm^3. NOD. SCID mice were treated with 15 mg/kg paclitaxel in OMP-OV19 and 10 mg/kg gemcitabine plus 30 mg/kg nab-pacltiaxel in OMP-PN42 with or without antibody once a week for 4 weeks, followed by a chemotherapy for 3-4 weeks. Thereafter, treatment was discontinued and tumor growth was monitored up to 2 months.
To determine the effect of simultaneous blockade of DLL4 and VEGF by the bi-specific antibody 305B83 plus 21R30 (anti-mDLL4) and B20 (anti-mVEGF) on tumor recurrence, an ovarian serous carcinoma tumor model OMP-OV19 and a pancreatic adenocarcinoma model OMP-PN42 were treated in combination with standard of care agents (paclitaxel in ovarian cancer and gemcitabine/nab-paclitaxel in pancreatic cancer) for four weeks followed by a chemotherapy maintenance phase for 3-4 weeks. Subsequently, tumor growth was monitored for up to two months following the discontinuation of treatment.

The subject of series [2] is OMP-PN8 pancreatic tumor cells. In words: OMP-PN8 pancreatic xenograft, antibodies in combination with gemcitabine. The conditions noted are these: with gemcitabine 70 mg/kg weekly for four weeks, then antibody maintained, demcizumab, bevacizumab 15 mg/kg, bispecific 30 mg/kg. It counts as in vivo, NOD-SCID mice. On the procedure:
FIG. 9 is a graph showing that DLL4/VEGF bispecific is active in combination with gemcitabine in pancreatic cancer. OMP-PN8 pancreatic tumor cells were injected into NOD-SCID mice. Tumors were allowed to grow for 24 days until they had reached an average tumor volume of 110 mm^3. […] After four weeks of combination treatment, the gemcitabine was discontinued and the antibody treatments were maintained. Gemcitabine was dosed at 70 mg/kg, weekly.
Following four weeks of treatment, the gemcitabine treatment was discontinued and the antibody treatments were maintained.

The subject of series [3] is OMP-PN42 tumors. The series is described as follows: OMP-PN42 xenograft, gemcitabine plus nab-paclitaxel with complete DLL4/VEGF inhibition. The class given is in vivo, NOD-SCID mice. On the procedure: FIG. 11 is a graph showing activity of anti-DLL4/VEGF bispecific in combination with gemcitabine plus nab-paclitaxel (ABRAXANE®). OMP-PN42 tumors were implanted in NOD-SCID mice. Tumor-bearing mice (n=10/group) were treated with control Ab, gemcitabine alone (30 mg/kg weekly), gemcitabine plus nab-paclitaxel, or the combination of anti-DLL4/VEGF (305B83, 21R30, B20) and gemcitabine plus nab-paclitaxel. Antibodies were dosed 10 mg/kg, weekly.
In patient-derived xenograft experiments, the stroma and vasculature is comprised of murine cells, whereas the tumor cells are human. Because DLL4 and VEGF are expressed in both tumor cells and in the stroma/vasculature, the previous experiments that were carried out with DLL4 and VEGF antagonists that block signaling of the human, but not murine, proteins and may have underestimated the full anti-tumor effect of blocking these pathways. To address this issue, the effect of simultaneous blockade of DLL4 and VEGF in both human tumor and murine stroma/vasculature cells in our xenograft studies were evaluated. This was done with experiments including surrogate antibodies—anti-mouse DLL4 (21R30) and anti-mouse VEGF (B20) in addition to 305B83 (which blocks human DLL4 and VEGF). Complete DLL4/VEGF inhibition in combination with gemcitabine plus nab-paclitaxel in OMP-PN42 tumors was tested.

In series [4] the test system is OMP-PN8 pancreatic tumor cells. The series is described as follows: Serial transplantation study of tumor initiating cell frequency, OMP-PN8. The following applies: four weeks of treatment, 90 tumor cells into 10 new mice, 83 days without treatment. It counts as in vivo. On the procedure:
FIG. 10 is a graph showing reduction of tumor-initiating cell frequency from anti-DLL4 activity. […] After four weeks of treatment, tumors were harvested, and the human tumor cells in the xenograft were purified. Ninety tumor cells from each treatment group were injected into new cohorts of 10 mice. Tumors were allowed to grow for 83 days without any further treatment. The volumes of the individual mice in the experiment are shown in the graph.
To determine the effect of DLL4 and VEGF inhibition on tumor initiating cell frequency in pancreatic cancer, serial transplantation studies were performed. […] Following four weeks of treatment, the tumors were harvested, and tumor cells from each treatment were implanted into a new set of mice. Tumors were then allowed to grow for 83 days without treatment. In the control group, nine out of ten mice grew large tumors (FIG. 10).

In series [5] the test system is xenograft tumor models. The following applies: Hoey et al., 2009; U.S. Pat. No. 7,750,124; cited from earlier work.
The subject of series [6] is OMP-C8 colon tumor cells. In words: Human-mouse chimera skin graft model, luciferase-labeled OMP-C8 colon tumor growth. The class given is in vivo, NOD/SCID mice. The following applies: OMP-C8 in human skin graft; 25 mg/kg intraperitoneally once a week; bioluminescence; compared to control antibody.
Description: Neonatal foreskin graft of about 2 cm^2 was implanted into the lateral trunk of anesthetized NOD/SCID mice. Luciferase-labeled human OMP-C8 colon tumor cells were then injected intradermally into the human skin graft 6 weeks post implant. Treatment was initiated 2 weeks later. Tumor growth was monitored by measurement of bioluminescence with the IVIS-200 Imaging System (Caliper Life Sciences).
To evaluate the effect of the bispecific anti-DLL4/VEGF antibody on tumor growth in a microenvironment composed of human cells, the human-mouse chimera skin graft model, in which human tumor cells are implanted intradermally into the full thickness of human skin previously transplanted onto mice was used.
A short description of series [7]: Phase 1a trial side effects. It counts as in vivo, human. The following applies: patients receiving 305B83. On the procedure:
To manage this side effect, a treatment algorithm was developed. First, if the patient's blood pressure exceeds 140/90, the patient is instructed to phone the principal investigator. The initial goal is to normalize blood pressure in 48-72 hours. Treatment with antihypertensive is to be adjusted daily if the blood pressure is not less than 140/90.

The test system of series [8] is vasculature-related genes, Notch target genes. In words: Vasculature density and stromal/vascular and Notch target gene expression in treated xenograft tumors. It counts as in vivo, mouse. The conditions noted are these: human genes in tumors. Here is the method:
FIGS. 5A-5C are photomicrographs and graphs showing anti-VEGF inhibition of angiogenesis is dominant over anti-DLL4 hyperproliferation in animals receiving 305B83.
These experiments were carried out by including surrogate antibodies—anti-mouse DLL4 (21R30) and anti-mouse VEGF (B20).
In general terms: A xenograft is tissue or cells of one species grown in another, often human tumour cells in immunodeficient mice.

With `CC(=O)O[C@H]1C(=O)[C@@]2(C)[C@H]([C@H](OC(=O)c3ccccc3)[C@]3(O)C[C@H](OC(=O)[C@H](O)[C@@H](NC(=O)c4ccccc4)c4ccccc4)C(C)=C1C3(C)C)[C@]1(OC(C)=O)CO[C@@H]1C[C@@H]2O` [paclitaxel], the “tumor growth during and after chemotherapy” value in series [1] is listed as “grew continuously during the course of study”.

As to “bevacizumab: humanized anti-VEGF monoclonal antibody [reference compound]”, the “tumor growth after gemcitabine withdrawal” value in series [2] was “had no effect”.

On to `Nc1ccn([C@@H]2O[C@H](CO)[C@@H](O)C2(F)F)c(=O)n1` [gemcitabine, reference compound], for which the “tumor growth under chemotherapy” value in series [3] (gemcitabine 30 mg/kg weekly, alone or plus nab-paclitaxel) is recorded as “minimal effect”.

B1: demcizumab: anti-DLL4 antibody, also known as OMP-21M18 or 21M18 (antibody, chains of the INN, looked up, V domains shown)
VH: QVQLVQSGAEVKKPGASVKISCKASGYSFTAYYIHWVKQAPGQGLEWIGYISSYNGATNYNQKFKGRVTFTTDTSTSTAYMELRSLRSDDTAVYYCARDYDYDVGMDYWGQGTLVTVSS
VL: DIVMTQSPDSLAVSLGERATISCRASESVDNYGISFMKWFQQKPGQPPKLLIYAASNQGSGVPDRFSGSGSGTDFTLTISSLQAEDVAVYYCQQSKEVPWTFGGGTKVEIK
As to B1, the “tumor growth frequency after serial transplantation” value in series [4] is on record as “tumor growth frequency was reduced”. In series [5], the “frequency of cancer stem cells” value was “reduce the frequency of cancer stem cells” and the tumor growth result is “inhibit tumor growth”. Besides, in series [2], the “tumor growth after gemcitabine withdrawal” value was “significantly delayed tumor growth”.

B2: 305B83: bispecific antibody 219R45-MB-21R83, anti-VEGF/anti-DLL4; blocks human DLL4 and VEGF (antibody, chains of the INN, looked up, V domains shown)
VH: QVQLVQSGAEVKKPGASVKISCKASGYSFTAYYIHWVKQAPGQGLEWIGYISNYNRATNYNQKFKGRVTFTTDTSTSTAYMELRSLRSDDTAVYYCARDYDYDVGMDYWGQGTLVTVSS
VL: DIVMTQSPDSLAVSLGERATISCRASESVDNYGISFMKWFQQKPGQPPKLLIYAASNQGSGVPDRFSGSGSGTDFTLTISSLQAEDVAVYYCQQSKEVPWTFGGGTKVEIK
VH2: QVQLVQSGAEVKKPGASVKVSCKASGYTFTNYWMHWVRQAPGQGLEWMGDINPSNGRTSYKEKFKRRVTLSVDKSSSTAYMELSSLRSEDTAVYFCTIHYDDKYYPLMDYWGQGTLVTVSS
VL2: DIVMTQSPDSLAVSLGERATISCRASESVDNYGISFMKWFQQKPGQPPKLLIYAASNQGSGVPDRFSGSGSGTDFTLTISSLQAEDVAVYYCQQSKEVPWTFGGGTKVEIK
With B2, the “inhibition of tumor growth (TGI)” value in series [6] is recorded as 87 % TGI. Also, the “tumor growth, complete DLL4/VEGF inhibition with chemotherapy” value in series [3] (305B83 plus surrogates 21R30 and B20, 10 mg/kg weekly, with gemcitabine plus nab-paclitaxel) is recorded as “complete tumor regression”. In series [7], the side effects observed result is on record as “development or exacerbation of hypertension in some patients”. Besides, the “Notch target gene expression in tumors” value in series [8] is “modulated Notch target gene expression in tumors similarly to anti-DLL4”.

Values taken from US11339213B2, “Methods and compositions for treatment of cancer” (MEREO BIOPHARMA 5, INC., priority 2015, dated 2022).
